Read-outs that look alike come from different tables or passages of the source.
How the values were obtained:
[1] = biological target: human C-KIT, full length, on cells (human) (UniProt P10721); experiment: cell-based or functional assay
[2] = biological target: cynomolgus monkey C-KIT, full length, on CHO-K1 cells (cynomolgus monkey); experiment: cell-based or functional assay
[3] = biological target: cynomolgus monkey C-KIT-Fc (cynomolgus monkey); experiment: HTRF epitope competition in solution; unlabelled h37M IgG1-3M titrated against terbium-labelled h37M IgG1 on cyno C-KIT-Fc
[4] = biological target: cynomolgus monkey C-KIT-Fc (cynomolgus monkey); experiment: direct ELISA at 1 µg/ml
[5] = biological target: cynomolgus monkey C-KIT-Fc (cynomolgus monkey); experiment: direct titration ELISA on coated C-KIT-Fc, IgG1 format
[6] = biological target: cynomolgus monkey C-KIT, full length, on CHO-K1 cells (cynomolgus monkey); experiment: flow cytometry, C-KIT-transfected CHO-K1 cells, IgG1 format
[7] = biological target: cynomolgus monkey C-KIT-Fc (cynomolgus monkey); experiment: direct titration ELISA on coated C-KIT-Fc, IgG1 format; remark: listed apart in the source
[8] = biological target: cynomolgus monkey C-KIT-Fc (cynomolgus monkey); experiment: HTRF competition vs Tb-h37M IgG1
[9] = biological target: cynomolgus monkey C-KIT-Fc (cynomolgus monkey); experiment: HTRF competition vs Tb-h37M IgG1; remark: listed apart in the source

B1: h37M-IgG1-3M (antibody, V domains shown)
VH: QVQLVQSGAEVKKPGASVKLSCKASGYTFTDYYINWVRQAPGKGLEWIARIYPGSGNTYYNEKFKGRATLTADKSTSTAYMQLSSLRSEDTAVYFCARGVYYFDYWGQGTTVTVSS
VL: DIVMTQSPSSLSASVGDRVTITCKASQNVRTNVAWYQQKPGKAPKALIYSASYRYSGVPDRFTGSGSGTDFTLTISSLQPEDFADYFCQQYNSYPRTFGGGTKVEIK
- Human C-KIT CHO FabZAP IC50 (pM) [1]: 5.7 pM
- TF-1 FabZAP IC50 (pM) [1]: 12.8 pM
- TF-1 proliferation IC50 [1]: 0.11 nM
- Cyno C-KIT CHO FabZAP IC50 (pM) [2]: 7.82 pM
- IC50 (read off the curve) [3]: 0.02 µg/mL

B2: humanized h37M, human IgG1 (antibody, V domains shown)
VH: B1 VH
VL: B1 VL
- OD450 nm [4]: > 2 OD450 nm
- EC50 (read off the curve) [5]: 0.2 µg/mL
- EC50 (read off the curve) [6]: 0.2 µg/mL
- EC50 (read off the curve) [7]: 0.1 µg/mL
- IC50 [8]: 0.036 µg/mL
- IC50 [9]: 0.035 µg/mL

From patent publication US20200283521A1
